Laboratory results: patent US20110212853

Assays:
[1] = system: recombinant human MCP-1 N1pE (human MCP-1 with an N-terminal pyroglutamate)
[2] = system: recombinant human MCP-1(1-76) starting with an N-terminal glutamine

recombinant human Aminopeptidase P (R&D Systems)
N-terminal cleavage, Maldi-TOF mass spectrometry [1]: conferring resistance against N-terminal degradation by post-proline cleaving enzymes, e.g. DP4 and aminopeptidase P
N-terminal cleavage, Maldi-TOF mass spectrometry [2]: cleavage of human MCP-1(1-76) bearing an N-terminal glutaminyl residue by recombinant human Aminopeptidase P
